Results published in patent US6159736.

System: Tn5 transposase hyperactive mutant EK54/MA56/LP372 (EK45/MA56/LP372 [sic] in example) E54K,M56A,L372P (Escherichia coli (transposon Tn5)?)
Test: cell_activity
Conditions: 1 µl electroporated into E. coli MG1655, KanR colonies

## linearized plasmid with mosaic-end kanamycin transposon and donor backbone
With Mg2+
  activity: 6900 CFU

## released transposable element (PvuII cut) with kanamycin resistance cassette flanked by inverted mosaic ends
No Mg2+, synaptic complex formed in vitro, with Mg2+ 3.9e3, 10 µl dialyzed without Mg2+ 5.5e5
  activity: 53000 CFU

## supercoiled plasmid with mosaic-end kanamycin transposon and donor backbone
With Mg2+, none without transposase
  activity: 1600 CFU
